doi:10.1101/2021.03.03.433707 (bioRxiv, 2021)
Values belong to the binder of their own block, whether it stands above or below them.

B2: MatPΔ18C (printed MatPA18C; 1-132) (domain or fragment, E. coli, UniProt P0A8N0 1-132, looked up)
chain: MKYQQLENLESGWKWKYLVKKHREGELITRYIEASAAQEAVDVLLSLENEPVLVNGWIDKHMNPELVNRMKQTIRARRKRHFNAEHQHTRKKSIDLEFIVWQRLAGLAQRRGKTLSETIVQLIEDAENKEKY

Key:
[1] = target: B2; assay: native MS
[2] = target: the molecule itself; assay: native MS
[3] = target: T1, MukB long hinge (LH, 568-863) (E. coli, UniProt P22523 568-863); assay: native MS
T1 sequence (looked up): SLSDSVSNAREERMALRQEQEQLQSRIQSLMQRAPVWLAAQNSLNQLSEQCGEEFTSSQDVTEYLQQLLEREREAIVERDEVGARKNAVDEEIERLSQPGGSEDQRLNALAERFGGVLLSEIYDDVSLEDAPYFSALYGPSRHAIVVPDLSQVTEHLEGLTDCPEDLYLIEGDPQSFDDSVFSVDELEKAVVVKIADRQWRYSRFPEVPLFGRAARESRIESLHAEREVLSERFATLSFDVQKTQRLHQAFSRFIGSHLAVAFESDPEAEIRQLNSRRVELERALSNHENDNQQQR

[4] = target: T1, MukB long hinge (LH, 568-863); assay: ITC
[5] = target: T2, MukB, full length, wild type (E. coli, UniProt P22523 1-1486); assay: fluorescence correlation spectroscopy
T2 sequence (looked up): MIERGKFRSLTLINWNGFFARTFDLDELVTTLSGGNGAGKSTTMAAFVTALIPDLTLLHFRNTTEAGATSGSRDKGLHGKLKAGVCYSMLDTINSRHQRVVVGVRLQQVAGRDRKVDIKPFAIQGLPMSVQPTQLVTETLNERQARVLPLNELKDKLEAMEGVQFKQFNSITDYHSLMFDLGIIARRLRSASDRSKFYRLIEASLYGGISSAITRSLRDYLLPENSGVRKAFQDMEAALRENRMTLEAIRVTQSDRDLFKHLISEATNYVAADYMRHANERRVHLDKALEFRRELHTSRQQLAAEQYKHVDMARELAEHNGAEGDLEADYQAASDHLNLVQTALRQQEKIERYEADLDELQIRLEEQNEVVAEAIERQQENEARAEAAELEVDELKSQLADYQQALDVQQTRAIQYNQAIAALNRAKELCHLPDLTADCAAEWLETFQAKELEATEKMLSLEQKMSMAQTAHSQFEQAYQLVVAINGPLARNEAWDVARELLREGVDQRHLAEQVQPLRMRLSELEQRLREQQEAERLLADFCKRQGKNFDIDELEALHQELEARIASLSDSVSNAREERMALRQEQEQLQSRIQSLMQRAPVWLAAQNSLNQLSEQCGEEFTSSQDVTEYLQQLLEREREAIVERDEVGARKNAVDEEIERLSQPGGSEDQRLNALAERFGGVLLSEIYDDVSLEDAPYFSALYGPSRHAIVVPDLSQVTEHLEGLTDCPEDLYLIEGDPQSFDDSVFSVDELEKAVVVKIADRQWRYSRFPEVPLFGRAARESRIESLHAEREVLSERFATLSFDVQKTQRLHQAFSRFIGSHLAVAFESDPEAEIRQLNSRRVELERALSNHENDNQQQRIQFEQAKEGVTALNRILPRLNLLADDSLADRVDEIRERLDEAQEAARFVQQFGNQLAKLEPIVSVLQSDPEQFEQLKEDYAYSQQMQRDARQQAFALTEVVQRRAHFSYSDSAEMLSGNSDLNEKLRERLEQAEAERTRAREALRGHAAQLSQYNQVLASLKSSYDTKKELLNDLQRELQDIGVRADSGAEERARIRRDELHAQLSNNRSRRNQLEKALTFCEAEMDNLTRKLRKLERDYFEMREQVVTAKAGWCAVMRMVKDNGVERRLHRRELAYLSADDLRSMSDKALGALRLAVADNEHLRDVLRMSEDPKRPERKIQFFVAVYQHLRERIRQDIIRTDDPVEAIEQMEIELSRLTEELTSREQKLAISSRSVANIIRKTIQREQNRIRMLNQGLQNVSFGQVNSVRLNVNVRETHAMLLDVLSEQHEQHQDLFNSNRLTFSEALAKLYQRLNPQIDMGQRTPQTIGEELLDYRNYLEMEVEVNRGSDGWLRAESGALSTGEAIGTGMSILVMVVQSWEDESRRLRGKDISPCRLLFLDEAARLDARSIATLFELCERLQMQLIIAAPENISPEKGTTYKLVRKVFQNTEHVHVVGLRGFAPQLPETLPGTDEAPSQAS

[6] = target: T3, MukB^KKK (full length MukB D697K D745K E753K) (E. coli, UniProt P22523 1-1486, D697K | D745K | E753K); assay: fluorescence correlation spectroscopy
T3 sequence (looked up): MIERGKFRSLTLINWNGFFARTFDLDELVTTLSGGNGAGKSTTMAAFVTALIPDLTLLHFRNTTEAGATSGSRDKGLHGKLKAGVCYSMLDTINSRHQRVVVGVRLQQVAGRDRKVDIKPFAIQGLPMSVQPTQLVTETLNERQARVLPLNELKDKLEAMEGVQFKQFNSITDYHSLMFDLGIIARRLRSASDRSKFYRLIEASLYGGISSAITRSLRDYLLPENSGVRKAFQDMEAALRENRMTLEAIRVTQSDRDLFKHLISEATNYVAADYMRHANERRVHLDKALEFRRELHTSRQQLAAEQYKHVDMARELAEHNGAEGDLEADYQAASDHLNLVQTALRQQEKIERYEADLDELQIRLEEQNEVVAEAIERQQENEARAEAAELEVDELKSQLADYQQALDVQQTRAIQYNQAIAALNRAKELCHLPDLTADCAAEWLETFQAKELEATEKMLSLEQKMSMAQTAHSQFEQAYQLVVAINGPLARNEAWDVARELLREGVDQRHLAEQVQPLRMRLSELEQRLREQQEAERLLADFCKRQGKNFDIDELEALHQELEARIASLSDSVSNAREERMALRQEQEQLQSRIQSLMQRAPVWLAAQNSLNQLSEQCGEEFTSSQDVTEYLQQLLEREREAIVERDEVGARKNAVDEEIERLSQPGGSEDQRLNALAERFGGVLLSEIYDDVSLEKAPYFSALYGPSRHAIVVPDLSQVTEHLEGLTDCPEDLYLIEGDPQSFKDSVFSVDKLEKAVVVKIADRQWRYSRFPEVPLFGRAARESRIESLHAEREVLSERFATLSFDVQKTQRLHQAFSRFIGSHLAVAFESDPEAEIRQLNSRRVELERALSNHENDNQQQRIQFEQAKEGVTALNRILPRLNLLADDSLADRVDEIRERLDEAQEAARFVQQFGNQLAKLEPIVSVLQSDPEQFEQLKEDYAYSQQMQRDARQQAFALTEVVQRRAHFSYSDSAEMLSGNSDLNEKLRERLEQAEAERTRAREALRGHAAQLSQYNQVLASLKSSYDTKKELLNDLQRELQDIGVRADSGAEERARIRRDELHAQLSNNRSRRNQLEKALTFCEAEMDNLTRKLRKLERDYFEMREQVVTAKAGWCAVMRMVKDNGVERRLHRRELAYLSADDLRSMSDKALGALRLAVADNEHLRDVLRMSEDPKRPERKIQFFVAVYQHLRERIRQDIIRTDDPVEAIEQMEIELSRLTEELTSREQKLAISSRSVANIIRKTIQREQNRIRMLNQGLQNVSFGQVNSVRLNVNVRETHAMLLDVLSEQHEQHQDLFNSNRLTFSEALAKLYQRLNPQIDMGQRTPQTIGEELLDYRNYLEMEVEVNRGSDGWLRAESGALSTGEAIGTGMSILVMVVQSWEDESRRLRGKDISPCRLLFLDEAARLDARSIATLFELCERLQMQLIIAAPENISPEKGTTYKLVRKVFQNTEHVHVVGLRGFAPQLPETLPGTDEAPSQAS

binding result [1]: binds
B1: MukB short hinge (SH, 667-779) (domain or fragment, E. coli, UniProt P22523 667-779, looked up)
chain: GGSEDQRLNALAERFGGVLLSEIYDDVSLEDAPYFSALYGPSRHAIVVPDLSQVTEHLEGLTDCPEDLYLIEGDPQSFDDSVFSVDELEKAVVVKIADRQWRYSRFPEVPLFG
stoichiometry N [2]: 2

Binder: B2
stoichiometry N [3]: 1 MatP dimer per LH dimer
Kd [4]: 590 nM
dH [4]: -16.8 kcal/mol
stoichiometry N [4]: 0.96

Kd [5]: ~250 nM
Kd [6]: ~1600 nM
B3: MatP-Cys-His labelled with Cy3B (MatP-Cy3B) (domain or fragment, E. coli, UniProt P0A8N0 1-132, looked up)
chain: MKYQQLENLESGWKWKYLVKKHREGELITRYIEASAAQEAVDVLLSLENEPVLVNGWIDKHMNPELVNRMKQTIRARRKRHFNAEHQHTRKKSIDLEFIVWQRLAGLAQRRGKTLSETIVQLIEDAENKEKY
modifications: Cy3B maleimide on a single cysteine engineered into the linker between MatP and its 6xHis-tag
